Source: the RNAGym collection of RNA variant scans (doi:10.1021/acssynbio.7b00057)

B1: Pistol ribozyme (parent)
chain: GGGUCGUUGUUCCAUAAUCGCGUGGAUAUGGCACGCAAGUUUCUACCGGGCACCGUAAAUGUCCGACUGGAGCCGUUCGGGCGGCUAUAAACAGACCUCAGGCCCGAAGCGUGGCGGCACCUGCCGCCGGUGGUAAAAAAGAUCGGAAGAGCACACGUCU

Variants of: B1
Experiment: aptazyme ON/OFF ratio, guanine; higher = stronger switching; co-transcriptional cleavage with and without guanine

Variant | aptazyme ON/OFF ratio
U8G G9U U10C U11A C12G C13A | 1.08
U8G G9U U10C U11A C12G C13G | 1.14
U8G G9U U10C U11A C12G C13U | 1.16
U8G G9C U10G C12A C13G | 1.09
U8G G9C U10G C12A C13A | 1.11
U8G G9C U10G C12A C13U | 1.15
U8G G9U U10C U11A C13G | 1.04
U8G G9U U10C U11A C13A | 1.06
U8G G9U U10C U11A C13U | 1.12
U8G G9C U10C U11G C12U C13A | 1.04
U8G G9C U10C U11G C12U C13G | 1.1
U8G G9C U10C U11G C12U C13U | 1.07
U8G G9U U10C U11C C12G | 1.02
U8G G9U U10C U11C C12U | 1.03
U8G G9U U10C U11C C12A | 1.04
U8G G9C U10A U11G C12U C13A | 1.06
U8G G9C U10A U11G C12U C13G | 1.1
U8G G9C U10A U11G C12U C13U | 1.17
U8G G9C U11A C12U | 1.05
U8G G9C U11A C12G | 1.07
U8G G9C U11A C12A | 1.11

Variant | aptazyme ON/OFF ratio
U8G G9U U10A U11G C12A C13G | 1.06
U8G G9U U10A U11G C12A C13U | 1.12
U8G G9U U10A U11G C12A C13A | 1.05
U8G G9C U11G C12G C13G | 1.07
U8G G9C U11G C12G C13A | 1.09
U8G G9C U11G C12G C13U | 1.11
U8G G9U U10A U11A C12U C13G | 1.11
U8G G9U U10A U11A C12U C13A | 1.14
U8G G9U U10A U11A C12U C13U | 1.15
U8G G9C U10G U11A C12A C13A | 1.12
U8G G9C U10G U11A C12A C13U | 1.11
U8G G9C U10G U11A C12A C13G | 1.11
U8G G9U U10C U11C C12A C13U | 1.02
U8G G9U U10C U11C C12A C13G | 1.1
U8G G9U U10C U11C C12A C13A | 1.05
U8G G9C U10C U11C C13U | 1.03
U8G G9C U10C U11C C13A | 1.06
U8G G9C U10C U11C C13G | 1.01
U8G G9C U10C U11C C12A C13A | 1.02
U8G G9C U10C U11C C12A C13G | 1.06
U8G G9C U10C U11C C12A C13U | 1.07

Variant | aptazyme ON/OFF ratio
U8G G9U U10C C12U C13A | 1.11
U8G G9U U10C C12U C13G | 1.08
U8G G9U U10C C12U C13U | 1.2
U8G G9C U11G C12A C13G | 1.05
U8G G9C U11G C12A C13A | 1.08
U8G G9C U11G C12A C13U | 1.08
U8G G9U U10A U11A C12G | 1.14
U8G G9U U10A U11A C12A | 1.34
U8G G9U U10A U11A C12U | 1.19
U8G G9U | 3.25
U8G G9C U11G C13U | 1.06
U8G G9C U11G C13G | 1.04
U8G G9C U11G C13A | 1.05
U8G G9U U10A C12A C13G | 1.18
U8G G9U U10A C12A C13U | 1.25
U8G G9U U10A C12A C13A | 1.21
U8G G9U C13U | 1.41
U8G G9U C13A | 1.39
U8G G9U C13G | 1.1
U8G G9U U10A C12U C13A | 1.2
U8G G9U U10A C12U C13U | 1.17

Variant | aptazyme ON/OFF ratio
U8G G9U U10A C12U C13G | 1.19
U8G G9C U10C U11C C12U | 1.06
U8G G9C U10C U11C C12G | 1.06
U8G G9C U10C U11C C12A | 1.05
U8G G9U U10G C12G C13G | 1.05
U8G G9U U10G C12G C13A | 1.02
U8G G9C U10G U11G C12G C13U | 1.3
U8G G9C U10G U11G C12G C13G | 1.1
U8G G9C U10G U11G C12G C13A | 1.24
U8G G9C U10G U11C C12U C13G | 1.02
U8G G9C U10G U11C C12U C13A | 1.03
U8G G9C U10G U11C C12U C13U | 1.03
U8G G9U U10A U11A | 1.59
U8G G9U U10A U11C | 1.01
U8G G9U U10A U11G | 1.16
U8G G9U U10C U11G C12A C13U | 1.12
U8G G9U U10C U11G C12A C13G | 1.11
U8G G9U U10C U11G C12A C13A | 1.14
U8G G9U U10A U11G C12U | 1.24
U8G G9U U10A U11G C12G | 1.27
U8G G9U U10A U11G C12A | 1.12
